According to US20100240872A1 (FORERUNNER PHARMA RESEARCH, published 2010):
Each block holds one binder with its values, some of them ahead of it.

Legend:
[1] = biological target: T1, Muc17ct_mIgG2aFc (soluble human Muc17ct / mouse IgG2a Fc fusion protein) (human); test: ELISA screening of hybridoma supernatant on immobilized Muc17ct_mIgG2aFc
[2] = biological target: T2, GST_Muc17ct_del3 (4115Thr-4243Gly) (human, UniProt Q685J3 4115-4243); test: ELISA, GST fusion immobilized at 1 µg/mL
T2 construct: not shown: GST encoded by vector pGEX4T-3 (Takara Bio)

[3] = biological target: T3, GST_Muc17ct_del2 (4244Ser-4390Leu) (human, UniProt Q685J3 4244-4390); test: ELISA, GST fusion immobilized at 1 µg/mL
T3 construct: not shown: GST encoded by vector pGEX4T-3 (Takara Bio)

[4] = biological target: T1, Muc17ct_mIgG2aFc (soluble human Muc17ct …); test: ELISA, Muc17ct_mIgG2aFc coated at 1 µg/mL, anti-human kappa chain detection
Description: Muc17ct_mIgG2aFc protein was diluted with coating buffer (0.1 mol/L NaHCO₃ (pH 9.6), 0.02% (w/v) NaN₃) to give 1 μg/mL of Muc17ct_mIgG2aFc protein, and added to an immunoplate for overnight at 4° C. for coating. The plate was blocked with dilution buffer (50 mM Tris-HCl (pH 8.1), 1 mM MgCl₂, 150 mM NaCl, 0.05% (v/v) Tween20, 0.02% (w/v) NaN₃, 1% (w/v) BSA); then the anti-Muc17 antibody was added for 1 hour at room temperature. After washing with rinse buffer (0.05% (v/v) Tween20, PBS), an alkali phosphatase-labeled anti-human κ chain antibody (Sigma, CAT#A3813) was added for 1 hour at room temperature. After washing with rinse buffer, SIGMA104 (Sigma) diluted at 1 mg/mL in the substrate buffer (50 mM NaHCO₃ (pH 9.8), 10 mM MgCl₂) was added. After color development for 1 hour at room temperature, the absorbance (405 nm, reference 655 nm) was measured using a Benchmark Plus (BIO-RAD Laboratories, Inc.).

[5] = biological target: Mucin 17 (Muc17) on AsPc1 pancreatic cancer cells (human, UniProt Q685J3 26-4493); test: flow cytometry on AsPc1 cells, FITC anti-human IgG detection
Description: Binding of the antibodies to a pancreatic cancer cell line AsPc1 was evaluated by flow cytometry. The cells were suspended in FACS buffer (1% FBS/PBS) at 5×10⁵ cells/mL and dispensed into Multiscreen-HV Filter Plates (Millipore), and the supernatant was removed by centrifugation. Anti-Muc17 antibody diluted to a suitable concentration was added and reacted for 30 minutes on ice. The cells were washed once with FACS buffer. FITC-labeled anti-human IgG antibody was added, and reacted for 30 minutes on ice. Then the supernatant was removed by centrifugation, the cell were suspended in 100 μL FACS buffer and applied to flow cytometry. Flow cytometry was run on FACS Calibur (Becton, Dickinson and Company). The viable cell population was gated with a forward scatter and side scatter histogram.

T1 sequence (chain, as listed by the source limits assumed): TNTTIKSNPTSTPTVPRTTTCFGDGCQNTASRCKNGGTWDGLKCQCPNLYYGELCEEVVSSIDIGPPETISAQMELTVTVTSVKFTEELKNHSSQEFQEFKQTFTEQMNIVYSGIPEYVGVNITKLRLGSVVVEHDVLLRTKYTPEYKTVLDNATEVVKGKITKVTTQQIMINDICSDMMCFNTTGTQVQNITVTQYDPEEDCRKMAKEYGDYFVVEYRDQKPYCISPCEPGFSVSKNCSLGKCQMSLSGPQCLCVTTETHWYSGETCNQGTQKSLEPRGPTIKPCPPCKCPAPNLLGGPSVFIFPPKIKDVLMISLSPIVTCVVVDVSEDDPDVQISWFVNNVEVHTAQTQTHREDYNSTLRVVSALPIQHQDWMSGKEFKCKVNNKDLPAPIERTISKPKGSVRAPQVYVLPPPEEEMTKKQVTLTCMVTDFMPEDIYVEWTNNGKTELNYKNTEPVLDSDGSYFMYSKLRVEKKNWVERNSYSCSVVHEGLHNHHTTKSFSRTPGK

binding result [1]: binds | binding result [2]: no binding (tested: 3 µg/mL) | binding result [3]: no binding (tested: 3 µg/mL)
B1: MQ155 (antibody, IgG1, V domains shown)
VH: QVQLQQPGAELVRPGASVKLSCKASGYTFTTYWMNWVKQRPEQGLEWIGRIDPYDSETHYNQKFKDKAILTVDKSSSTAYMQLSSLTSEDSAVYYCARGPYYGTNPWFPYWGQGTLVTVSS
VL: DVQITQSPSYLAASPGETITINCRASKSISKYLAWYQEKPGKTNKLLIYSGSTLQSGIPSRFSGSGSGTDFTLTISSLEPEDFAMYYCQQHHEYPYTFGGGTKLEIK
notes: Mouse monoclonal from hybridoma, IgG1 kappa; also called anti-Muc17 antibody MQ155

binding result [4]: binds | binding result [5]: binds
B2: chi.MQ155 (anti-Muc17 mouse-human chimeric antibody MQ155) (antibody, human IgG1, kappa, V domains shown)
VH: B1 VH
VL: DVQITQSPSYLAASPGETITINCRASKSISKYLAWYQEKPGKTNKLLIYSGSTLQSGIPSRFSGSGSGTDFTLTISSLEPEDFAMYYCQQHHEYPYTFGGGTKLEIKR
notes: Human IgG1 / kappa constant regions; also called chi.MQ155(DG); chi.MQ155(FTKO)
